± gives the standard deviation of the averaged measurements.
Tested on: Saccharomyces cerevisiae
Assay: protein stability index of tFT-peptide fusion (C-terminal peptide) (PSI (0-1 scale)); higher = more stable (slower turnover)
Settings: genetic background: wild type; temperature: 30 C
Experimental: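 Multiplexed protein stability (MPS) profiling in S. cerevisiae. Random 12-aa peptides (tFT-X12 library) are fused to the C-terminus of a sfGFP-mCherry tandem fluorescent timer, after mCherry and a GGGS linker. Cells are FACS-sorted into 8 mCherry/sfGFP bins and deep-sequenced. The protein stability index (PSI) is the read-weighted bin average, scaled from 0 (unstable) to 1 (stable). Only peptides with >10 reads are reported; cells were grown at 30 °C in SC-His with glucose.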
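Further: PSI is a weighted mean of sequencing reads over stability bins, variants kept only with over 10 reads, mCherry proximal and sfGFP distal, peptide attached via GGGS linker.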

## PPPPSPALPTFP
  protein stability index: 0.715 ± 0.049

## SGAGVNWGVGGG
  protein stability index: 0.728 ± 0.019

## KMSRKIKIRERG
  protein stability index: 0.658 ± 0.016

## AICRVGGFGRKD
  protein stability index: 0.717 ± 0.01

## RPGSMWAQGGVG
  protein stability index: 0.566 ± 0.0078

## PSIPRTSTRPTL
  protein stability index: 0.706 ± 0.037

## SPWWAPPSPPYP
  protein stability index: 0.582 ± 0.015

## FCNAVLSCFSIF
  protein stability index: 0.597 ± 0.0068

## FQEDSPVSQRYP
  protein stability index: 0.645 ± 0.041

## LKLQGGCLETGA
  protein stability index: 0.602 ± 0.015

## YLGFRVACPMLA
  protein stability index: 0.501 ± 0.036

## LKELDTGVEQDE
  protein stability index: 0.671 ± 0.0096

## KETSERKNKETG
  protein stability index: 0.624 ± 0.041

## VAAFGGGPTNGV
  protein stability index: 0.724 ± 0.013

## LSCSLSWFFSSV
  protein stability index: 0.679 ± 0.083

## PLRYPQLTLPPP
  protein stability index: 0.6381 ± 0.0037

## PPSFDPSPPSSL
  protein stability index: 0.696 ± 0.042

## HVKLLSSNGPLV
  protein stability index: 0.671 ± 0.031

## PRPPSPPADPAP
  protein stability index: 0.744 ± 0.013

## ITSHRDSVSRWK
  protein stability index: 0.707 ± 0.0095

## LGRNLGKDPVEV
  protein stability index: 0.593 ± 0.11

## SSLVRFDSSAPL
  protein stability index: 0.665 ± 0.033

## DEVRDTSGGTWA
  protein stability index: 0.642 ± 0.02

## PPSLPPPPLSQP
  protein stability index: 0.68 ± 0.026

## GRPYEHVVDPWR
  protein stability index: 0.733 ± 0.029

## IGGVSHEMKAKR
  protein stability index: 0.619 ± 0.013

## RSTPPHAHRSPP
  protein stability index: 0.716 ± 0.015

## LFLPDPHSLTFH
  protein stability index: 0.744 ± 0.044

## ASTLPTQPWPKG
  protein stability index: 0.729 ± 0.11

## GGVVVGRGVCVF
  protein stability index: 0.626 ± 0.032

## CGGDGRTPTTHT
  protein stability index: 0.665 ± 0.019

## RAIGSRIIIWGL
  protein stability index: 0.564 ± 0.011

## SPPPPPLPPAYL
  protein stability index: 0.681 ± 0.012

## PSAPPLSHPAPW
  protein stability index: 0.675 ± 0.047

## LGGARWSGLPHV
  protein stability index: 0.707 ± 0.085

## PTVLCTGKCLRS
  protein stability index: 0.635 ± 0.044

## FRDLRSSVLVLP
  protein stability index: 0.6599 ± 0.0058

## DWGRRGGALAVI
  protein stability index: 0.641 ± 0.012

## SDVHGLSLSDVS
  protein stability index: 0.632 ± 0.085

## VVVRVAEGGGRW
  protein stability index: 0.666 ± 0.047

## KKRKKNIKQNTK
  protein stability index: 0.617 ± 0.043

## LRHWKALVTYLL
  protein stability index: 0.566 ± 0.052

## KQGFVRARSYHP
  protein stability index: 0.699 ± 0.013

## INKRKQKLIKKV
  protein stability index: 0.628 ± 0.0069

## SSTFPRPSLRPV
  protein stability index: 0.64 ± 0.091

## SGCWREVEVGFG
  protein stability index: 0.737 ± 0.059

## PGLLPTPSSPVP
  protein stability index: 0.821 ± 0.032

## GVGWRGGCEGGV
  protein stability index: 0.711 ± 0.062

## SPRVKEVSREIR
  protein stability index: 0.689 ± 0.045

## VRCAAIKLIGRI
  protein stability index: 0.675 ± 0.051

## GFLCARGAHSMT
  protein stability index: 0.704 ± 0.013

## RGRMGLGSPGGG
  protein stability index: 0.639 ± 0.06

## QAHRHASPKTRT
  protein stability index: 0.654 ± 0.032

## YPPLSYSFCHRP
  protein stability index: 0.637 ± 0.072

## GFKMSMGCEQSS
  protein stability index: 0.722 ± 0.076

## GPYDLPCLPLSA
  protein stability index: 0.633 ± 0.014

## SEPPPPTPPPLP
  protein stability index: 0.679 ± 0.18

## CSFHPSSVSLYS
  protein stability index: 0.555 ± 0.027

## DSMGKVLLTCAN
  protein stability index: 0.581 ± 0.0094

## SYKSLGLVEFRV
  protein stability index: 0.712 ± 0.054

## PFARPPPSPSPR
  protein stability index: 0.707 ± 0.012

## RKEKNRKEKSIQ
  protein stability index: 0.668 ± 0.013

## FMRASPSACTCL
  protein stability index: 0.668 ± 0.094

## LCRRGGRSACGS
  protein stability index: 0.7019 ± 0.0067

## WSLPILPPPSPD
  protein stability index: 0.663 ± 0.032

## DKPVDTRPGSPG
  protein stability index: 0.66 ± 0.031

## PISKLCLTSYEY
  protein stability index: 0.697 ± 0.021

## EQVRVDETTGRR
  protein stability index: 0.722 ± 0.025

## LVAATGRCIKKP
  protein stability index: 0.649 ± 0.061

## RTGRTCADRPTP
  protein stability index: 0.757 ± 0.043

## SPFSPTAPPPPP
  protein stability index: 0.718 ± 0.017

## VFDCLCGLRPGF
  protein stability index: 0.632 ± 0.026

## WIKKGKNRLRKT
  protein stability index: 0.586 ± 0.05

## TTKKKKGKKKYH
  protein stability index: 0.681 ± 0.048

## SNLRSPFPSLPL
  protein stability index: 0.714 ± 0.022

## VYGVVVWLFGFL
  protein stability index: 0.678 ± 0.0095

## GFLCLISSLGFM
  protein stability index: 0.687 ± 0.051

## LPPPSPLPNSPL
  protein stability index: 0.716 ± 0.13

## VSNVSDSGHPYL
  protein stability index: 0.6777 ± 0.0021

## GGGRWSAGVVEG
  protein stability index: 0.829 ± 0.1

## WPGICVWAGSPG
  protein stability index: 0.717 ± 0.06

From the supplement of paper PMC10724198
